{"source": "paper PMC8047080", "about": "“Engineering Cofactor Specificity of a Thermostable Phosphite Dehydrogenase for a Highly Efficient and Robust NADPH Regeneration System” (Frontiers in Bioengineering and Biotechnology, 2021)", "molecules": {"B1": {"name": "RsPtxD (Ralstonia sp. 4506) (protein)", "chain": "MKPKVVLTHWVHPEIIELLSASADVIPNTTRETLPRSEVIARAKDADALMAFMPDSIDSAFLEECPKLRVIGAALKGYDNFDVNACTRHGVWLTIVPDLLTIPTAELTIGLLLGLTRHMLEGDRQIRSGHFQGWRPTLYGSGLTGKTLGIIGMGAVGRAIAQRLAGFEMNLLYCDPIPLNAEQEKAWHVQRVTLDELLEKCDYVVPMVPMAAETLHLIDATALAKMKTGSYLINACRGSVVDENAVIAALASGKLAGYAADVFEMEEWIRADRPQAIPKALLDNTAQTFFTPHLGSAVKEVRLEIERQAAMNIIQALAGEKPMGAINQPYPGVKAA"}}, "key": {"[1]": {"target": "T1, shikimate dehydrogenase (SDH) (Thermus thermophilus, UniProt Q5SJF8)", "T1 construct": "gene aroE; pET-11a in E. coli Rosetta 2 (DE3) pLysS; heat treatment at 80°C and HiTrap SP purification", "T1 sequence (Q5SJF8 1-263)": "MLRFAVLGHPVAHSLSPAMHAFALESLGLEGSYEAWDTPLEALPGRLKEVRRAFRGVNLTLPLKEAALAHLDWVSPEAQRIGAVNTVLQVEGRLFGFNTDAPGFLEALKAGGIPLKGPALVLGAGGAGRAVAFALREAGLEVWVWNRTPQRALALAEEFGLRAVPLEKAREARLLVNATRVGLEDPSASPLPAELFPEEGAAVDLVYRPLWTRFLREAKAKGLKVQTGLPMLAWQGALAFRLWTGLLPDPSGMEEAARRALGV", "assay": "HPLC ([…] nm) of shikimic acid formed in coupled reaction with RsPtxD", "type": "biochemical", "conditions": "NADPH regenerated from 0.1 mM NADP by RsPtxD HARRA mutant; 20 mM phosphite; 100 mM HEPES pH 8.0; 45°C"}, "[2]": {"tested_on": "NC(=O)c1ccc[n+]([C@@H]2O[C@H](COP(=O)(O)OP(=O)(O)OC[C@H]3O[C@@H](n4cnc5c(N)ncnc54)[C@H](OP(=O)(O)O)[C@@H]3O)[C@@H](O)[C@H]2O)c1", "assay": "purified protein", "conditions": "1 mM phosphite, 100 mM MOPS pH 7.3"}, "[3]": {"tested_on": "O=[PH](O)O", "assay": "purified protein", "conditions": "1 mM NADP as co-substrate, 100 mM MOPS pH 7.3"}, "[4]": {"tested_on": "NC(=O)c1ccc[n+]([C@@H]2O[C@H](COP(=O)(O)OP(=O)(O)OC[C@H]3O[C@@H](n4cnc5c(N)ncnc54)[C@H](O)[C@@H]3O)[C@@H](O)[C@H]2O)c1", "assay": "purified protein", "conditions": "1 mM phosphite, 100 mM MOPS pH 7.3"}, "[5]": {"substrate": "NC(=O)c1ccc[n+]([C@@H]2O[C@H](COP(=O)(O)OP(=O)(O)OC[C@H]3O[C@@H](n4cnc5c(N)ncnc54)[C@H](OP(=O)(O)O)[C@@H]3O)[C@@H](O)[C@H]2O)c1", "assay": "purified protein", "conditions": "1 mM phosphite, 100 mM MOPS pH 7.3", "remark": "listed apart in the source"}, "[6]": {"substrate": "O=[PH](O)O", "assay": "purified protein", "conditions": "1 mM NAD as co-substrate, 100 mM MOPS pH 7.3"}, "[7]": {"substrate": "NC(=O)c1ccc[n+]([C@@H]2O[C@H](COP(=O)(O)OP(=O)(O)OC[C@H]3O[C@@H](n4cnc5c(N)ncnc54)[C@H](O)[C@@H]3O)[C@@H](O)[C@H]2O)c1", "assay": "purified protein", "conditions": "1 mM phosphite, 100 mM MOPS pH 7.3", "remark": "listed apart in the source"}}}
{"molecule": "NC(=O)C1=CN([C@@H]2O[C@H](COP(=O)(O)OP(=O)(O)OC[C@H]3O[C@@H](n4cnc5c(N)ncnc54)[C@H](OP(=O)(O)O)[C@@H]3O)[C@@H](O)[C@H]2O)C=CC1", "note": "[NADPH]", "values": [{"measurement": "HPLC (230 nm) of shikimic acid formed in coupled reaction with RsPtxD", "setting": "[1]", "value": "SDH catalyzes the reduction of 3-DHS to SA"}]}
{"molecule": "RsPtxD (Ralstonia sp. 4506; C174H/D175A/I177K/P176R/P178A)", "values": [{"measurement": "Km", "setting": "[2]", "value": "4.4 ± 0.9", "unit": "µM"}, {"measurement": "kcat", "setting": "[2]", "value": "129 ± 12.1", "unit": "min^–1"}, {"measurement": "kcat/Km", "setting": "[2]", "value": 493000, "unit": "M⁻¹ s⁻¹"}, {"measurement": "Km", "setting": "[3]", "value": "27 ± 9.0", "unit": "µM"}, {"measurement": "Km", "setting": "[4]", "value": "130 ± 10.6", "unit": "µM"}, {"measurement": "kcat", "setting": "[4]", "value": "154 ± 7.5", "unit": "min^–1"}, {"measurement": "kcat/Km", "setting": "[4]", "value": 20000, "unit": "M⁻¹ s⁻¹"}]}
{"molecule": "RsPtxD (Ralstonia sp. 4506; C174H/D175A/I177R/P176R/P178A)", "values": [{"measurement": "Km", "setting": "[2]", "value": "2.9 ± 0.5", "unit": "µM"}, {"measurement": "kcat", "setting": "[2]", "value": "128 ± 16.6", "unit": "min^–1"}, {"measurement": "kcat/Km", "setting": "[2]", "value": 735000, "unit": "M⁻¹ s⁻¹"}, {"measurement": "Km", "setting": "[3]", "value": "38 ± 8.5", "unit": "µM"}, {"measurement": "Km", "setting": "[4]", "value": "112 ± 1.3", "unit": "µM"}, {"measurement": "kcat", "setting": "[4]", "value": "148 ± 14.8", "unit": "min^–1"}, {"measurement": "kcat/Km", "setting": "[4]", "value": 21700, "unit": "M⁻¹ s⁻¹"}]}
{"molecule": "RsPtxD (Ralstonia sp. 4506; C174H/D175A/P176R)", "values": [{"measurement": "Km", "setting": "[2]", "value": "24 ± 5.2", "unit": "µM"}, {"measurement": "kcat", "setting": "[2]", "value": "118 ± 6.8", "unit": "min^–1"}, {"measurement": "kcat/Km", "setting": "[2]", "value": 81700, "unit": "M⁻¹ s⁻¹"}, {"measurement": "Km", "setting": "[4]", "value": "154 ± 14.7", "unit": "µM"}, {"measurement": "kcat", "setting": "[4]", "value": "155 ± 2.3", "unit": "min^–1"}, {"measurement": "kcat/Km", "setting": "[4]", "value": 16700, "unit": "M⁻¹ s⁻¹"}]}
{"molecule": "RsPtxD (Ralstonia sp. 4506; D175A/P176R)", "values": [{"measurement": "Km", "setting": "[2]", "value": "56 ± 5.1", "unit": "µM"}, {"measurement": "kcat", "setting": "[2]", "value": "91.1 ± 3.9", "unit": "min^–1"}, {"measurement": "kcat/Km", "setting": "[2]", "value": 26700, "unit": "M⁻¹ s⁻¹"}, {"measurement": "Km", "setting": "[4]", "value": "412 ± 21.5", "unit": "µM"}, {"measurement": "kcat", "setting": "[4]", "value": "115 ± 13.0", "unit": "min^–1"}, {"measurement": "kcat/Km", "setting": "[4]", "value": 5000, "unit": "M⁻¹ s⁻¹"}]}
{"molecule": "B1", "values": [{"measurement": "Km", "setting": "[5]", "value": "418 ± 38.7", "unit": "µM"}, {"measurement": "kcat", "setting": "[5]", "value": "16.0 ± 6.3", "unit": "min^–1"}, {"measurement": "Km", "setting": "[6]", "value": "37.0 ± 7.0", "unit": "µM"}, {"measurement": "Km", "setting": "[7]", "value": "7.7 ± 2.3", "unit": "µM"}, {"measurement": "kcat", "setting": "[7]", "value": "127 ± 16.8", "unit": "min^–1"}, {"measurement": "kcat/Km", "setting": "[7]", "value": 277000, "unit": "M⁻¹ s⁻¹"}]}
